Paper PMC3713452 (2013)

Molecular target: T1, GST-Pdcd4 (GST fusion to full length Drosophila Pdcd4) (Drosophila, UniProt Q9VY91)
T1 chain: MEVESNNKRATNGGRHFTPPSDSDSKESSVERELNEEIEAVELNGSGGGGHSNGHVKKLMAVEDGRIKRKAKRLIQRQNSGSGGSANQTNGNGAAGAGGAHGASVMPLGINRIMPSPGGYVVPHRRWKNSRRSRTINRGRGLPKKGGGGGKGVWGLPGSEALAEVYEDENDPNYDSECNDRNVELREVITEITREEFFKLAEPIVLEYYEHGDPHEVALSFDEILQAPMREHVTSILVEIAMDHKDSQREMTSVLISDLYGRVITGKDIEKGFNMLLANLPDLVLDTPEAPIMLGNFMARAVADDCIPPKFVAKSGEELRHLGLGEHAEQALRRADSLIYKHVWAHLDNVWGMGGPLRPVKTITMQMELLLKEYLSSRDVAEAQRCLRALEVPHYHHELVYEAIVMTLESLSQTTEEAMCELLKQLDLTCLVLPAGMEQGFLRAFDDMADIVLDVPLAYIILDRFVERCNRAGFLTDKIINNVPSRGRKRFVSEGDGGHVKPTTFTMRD
Assay: GST pull-down (affinity chromatography, immunoblot)

binding result: binds
B1: recombinant Drosophila eIF4A (6His eIF4A) (protein)
chain: MDDRNEIPQDGPASMEPEGVIESTWHEVYDNFDDMNLREELLRGIYGYGFEKPSAIQQRAIIPCVRGRDVIAQAQSGTGKTATFSIAILQQIDTSIRECQALILAPTRELATQIQRVVMALGEYMKVHSHACIGGTNVREDARILESGCHVVVGTPGRVYDMINRKVLRTQYIKLFVLDEADEMLSRGFKDQIQDVFKMLPPDVQVILLSATMPPDVLEVSRCFMRDPVSILVKKEELTLEGIKQFYVNVKQENWKLGTLCDLYDTLSITQSVIFCNTRRKVDQLTQEMSIHNFTVSAMHGDMEQRDREVIMKQFRSGSSRVLITTDLLARGIDVQQVSLVINYDLPSNRENYIHRIGRGGRFGRKGVAINFITDDDRRILKDIEQFYHTTIEEMPANIADLI
